A protein production outcome set (Wang et al. 2014)

Test: label from the status in PepcDB records

Sequence | protein production
MEISRGDFEQAYQNERNRMQAQLGDYFSNLLADPTYVASFRKSVLDRMVNDLLLEQHAASLGLRVSDEQVRQLILEIPQFQSQGVFDSTAYQATLRRAGFTPEMYAEYLRKDLVRNQLMSALQGSEFSLAGEVNLQDQLISQTRDIRTITLSLEDFAKKVTLSDEEIDQYYKTNTERFTRPEQVKVSYVELSADGLKAQVSVDDAAAQQYYQEHLDKYSTAEQRNVSHILIEGNDEQKAQAILDELNAGADFATLAKEKSQDLGSAAEGGSLGWIEPDTMDPAFEAAAFALTEKGQVSGLVKSDFGYHIIRLDDIKAPVVKPYSEVEQAIKQELIDQQALDSFYAKQSELEKMAFEHSDSLDEAAKAISATVVHTDFISAEQAPEVLTTPAVLQALKSPEVKEDGLNSEVIEVAPEHVVVVRVEEFRPETVLPLDEVKSQVVEQLSRMKGEQQALELGNQLVTALKAGETDLLAQKGVSFGELQMIDRSSPLANTVYAMVKPQEGEKVYAQAKDFDGNIVVIELSKVESKLTPAYHEQIATQLERIGSQQDLAGVISVLRQNTDIEYHIATELEHHHHHH | not failed
MKLFKRISFILIVLYILIVPVQHVSAHAYLENSNPADQSHIKTAPEKVTLVFNEEIEADFPLIEVKDSSGKRVETGKTSVSKKNNHMVEASLPAELKADVYSVSWRVVSADGHAVTGIISFKLGDTKATFQESEVPSSGADLQISSIQKAILYIGFSLFIGVLVFGLGLYPRKEQISEKISGRLKKVTWIALALLGVALFMQLFVQTSITTGVSISESFGPSKLAAFLTTKTGYIWISEFIVWLLLAIFTIMMFFKNKQWSWFALLTESALIGYLIFAKAQNGHAAASADKIVSITADMLHMIAASVWVGGILVLLFVLPKTGKAREIWSRFAIVAIIAVASILVSGLLMAVMNIGQMSNLFTTNYGKILLFKIGLFLLMALLGLGHYIYLKLKNKKLPFKTILIELIIGTIILIVASVLTNVQTPPPPAPKAFDETIAAKGENAKINLRVEPATVGQNQFIITFTSADGATKTDFEQVTITTKSTKTDEKATFQAKLANENQYFAEGLYINQTGKWEITVHGLTKDFTDINQTFTTNITQ | failed
MQVFIMRHGDAALDAASDSVRPLTTNGCDESRLMANWLKGQKVEIERVLVSPFLRAEQTLEEVGDCLNLPSSAEVLPELTPCGDVGLVSAYLQALTNEGVASVLVISHLPLVGYLVAELCPGETPPMFTTSAIASVTLDESGKGEFNWQMSPCNLKMAKAI | not failed
MQVSVETTQGLGRRVTITIAADSIETAVKSELVNVAKKVRIDGFRKGKVPMNIVAQRYGASVRQDVLGDLMSRNFIDAIIKEKINPAGAPTYVPGEYKLGEDFTYSVEFEVYPEVELQGLEAIEVEKPIVEVTDADVDGMLDTLRKQQATWKEKDGAVEAEDRVTIDFTGSVDGEEFEGGKASDFVLAMGQGRMIPGFEDGIKGHKAGEEFTIDVTFPEEYHAENLKGKAAKFAINLKKVEERELPELTAEFIKRFGVEDGSVEGLRAEVRKNMERELKSAIRNRVKSQAIEGLVKANDIDVPAALIDSEIDVLRRQAAQRFGGNEKQALELPRELFEEQAKRRVVVGLLLGEVIRTNELKADEERVKGLIEEMASAYEDPKEVIEFYSKNKELMDNMRNVALEEQAVEAVLAKAKVTEKETTFNELMNQQA | not failed
MFPNSILGRPPFTPTHQQHNNFFALSPTLYSHQQLIDAQFNFQNVDLSRAVSLQPLTYGTVSPIQTSTSPLFRGRKRISDEKAFRLDGKRQRFHSPHQEPTIINQLVPLSGDRRYSMPPLFHTHYVPEIVRCVPPLREIPLLEPREITLPEAKDKLSQQILELFETCQQQASDLKKKELCRAQLQREIQLLFPQSRLFLVGSSLNGFGARSSDGDLCLVVKEEPCFFQVNQKTEARHILTLVHKHFCTRLSGYIERPQLIRAKVPIVKFRDKVSCVEFDLNVNNTVGIRNTFLLRTYAYLENRVRPLVLVIKKWASHHEINDASRGTLSSYSLVLMVLHYLQTLPEPILPSLQKIYPESFSTSVQLHLVHHAPCNVPPYLSKNESSLGDLLLGFLKYYATEFDWNTQMISVREAKAIPRPDDMEWRNKYICVEEPFDGTNTARAVHEKQKFDMIKDQFLKSWQRLKNKRDLNSVLPLRAATLKR | failed
TFSYLAETDYPVFTLGGSTADAARRLAASGCACAPVLDGERYLGMVHLSRLLEGRKGWPTVKEKLGEELLETVRSYRPGEQLFDNLISVAAAKCSVVPLADEDGRYEGVVSRKRILGFLAERI | failed
MMALQEEKGKPVHCERHHESSSVDTEPGLEESKEVIKWKRLPGQACRIPNKHLFSLNAGERGCFCLDFSHNGRILAAACASRDGYPIILYEIPSGRFMRELCGHLNIIYDLSWSKDDHYILTSSSDGTARIWKNEINNTNTFRVLPHPSFVYTAKFHPAVRELVVTGCYDSMIRIWKVEMREDSAILVRQFDVHKSFINSLCFDTEGHHMYSGDCTGVIVVWNTYVKINDLEHSVHHWTINKEIKETEFKGIPISYLEIHPNGKRLLIHTKDSTLRIMDLRILVARKFVGAANYREKIHSTLTPCGTFLFAGSEDGIVYVWNPETGEQVAMYSDLPFKSPIRDISYHPFENMVAFCAFGQNEPILLYIYDFHVAQQEAEMFKRYNGTFPLPGIHQSQDALCTCPKLPHQGSFQIDEFVHTESSSTKMQLVKQRLETVTEVIRSCAAKVNKNLSFTSPPAVSSQQSKLKQSNMLTAQEILHQFGFTQTGIISIERKPCNHQVDTAPTVVALYDYTANRSDELTIHRGDIIRVFFKDNEDWWYGSIGKGQEGYFPANHVASETLYQELPPEIKERSPPLSPEEKTKIEKSPAPQKVK | failed
MRSETVSTHTKPVRPEPPAPAAEVPAGAFPPGQERDHDTRPSAPPRDQSPPPAPEADSRSAARPAPPTHPGTSSTVWVRRRLARLGAQRGTTMNPVLEPLVKTVRATHPKADIRLIERAYDVAAHYHRSQKRKSGDPYITHPLAVATILAELGMQEATIAAGLLHDTVEDTEYTLDQLRSDFGDEIAELVDGVTKLDKVKYGEATQAETVRKMVVAMARDIRVLVIKLCDRLHNMRTLRYLPQAKREKKARETLEIYAPLAHRLGMNTIKWELEDLAFATLYPKRFDEIARLVAERAPRRDVYLQEVIEIVSADLREAKIKATVRGRPKHYYSIYQKMIARNVGFDEIYDLVGIRVIVDSVRDCYAALGIIHARWNPVPGRFKDYIAMPKFNMYQSLHTTVIGPEGSPVELQIRTRAMHRRAEYGIAAHWKYKEERNNGGKAKGASTDMAWLRQLIDWQQETKDPGEFLESLRFDLSVQEVFVFTPRGDVIALPQGATPVDFAYAVHTEVGHRTVGARVNGRLVPLDSELHNGETVEIITAKTDDAGPSRDWLDFVKSARARNKIRQWFTKERREAAIEQGKEAIAKVMRKQELPVQRLFTSESLIALAHDLRYRDLDALYAAVGENQISAHKVVEKLIESVGSLDNNEEDIAEATTPIRVPRKRPTGNPGVVVQGDPDVWVRLSKCCTPVPGDAIIGFVTRGAGVSVHRDDCGNVKHLDPDRLVQVEWQPTGNSMFLVALQIEALDRTRLLSDITRVLSDQHVNILSATVQTTRDRVALSRFTFEMADPAHLGHVLKAVRSVDGVYDVYRVRN | failed
MSLVAARPLVLVVDDNAVNREALILYLKSRGIDAVGADGAEEARLYLHYQKRIGLMITDLRMQPESGLDLIRTIRASERAALSIIVVSGDTDVEEAVDVMHLGVVDFLLKPVDLGKLLELVNKELKIGEGHHHHHH | not failed
MTRLAFVRKKEKNCGQCRICEVSCPMGIETENAEKYKGECISCIKCVEICPRYNMQLNFANQPVNPRYTSSLTVAGLFAVFSALSFLPSAKKIDTAKYNAIPSFADEDYQTDEENENINSSDNKQVETQQDYQAEIAQNNSQEANTSQNQISDQAQENAMTSKYQQNQSAAESYNSTETNQKSANVQSKTFEQAAENSQKTSLEKSQGSVQNSTYPVSSSNSSDESQQENVQANLSNATETSTQNFKVSNNTSETPKGISKIYKDGTYTGEGFGYRPGLVVEVTIKDDKITKIKIVSHNETQSFAQLPFEIIPQEIIQNQSTNVDIVSGATRTSYGIIMAVEDALNKAKIENESSLQN | failed
MSFIRTFYGDIAPEQLGFTYSHEHIVCVPAYWQERDADDLLLDDKEKSQLDVQDFADLGGKTIVDATAVDYGRRVLDVAQISKETGIQIVGTAGFNKSFLWDGKIKPELKPIIGDFETYYEWIENTSIDKLTEFVVNEVENGLEGTPYKAGQVKFGTGYNMITPLEEKTIRAVARAHHETKAPIHSHTEAGTMALEQIEILKQENIPLEYLSIGHMDRNLDPYYHKQVAKTGAFMSFDGIAKIKYAPESARIAAILYLVSEGFEDQILVSGDTARKTYYKHYGHGPGLEYIAKKWVPRFIDEANEKGFDGEKLVKKFFVDNPARCFTFKK | failed
SSPPSGCPMHEGKMKGCPVNTEPSGPTCEKKTYSVPAHQERAYEYVECPIRGTAAENKENLDPSNLMPPPNQTPAPDQPFALSTVREESSIPRADSEKKWVYPSEQMFWNAMLKKGWKWKDEDISQKDMYNIIRIHNQNNEQAWKEILKWEALHAAECPCGPSLIRFGGKAKEYSPRARIRSWMGYELPFDRHDWIINRCGTEVRYVIDYYDGGEVNKDYQFTILDVRPALDSLSAVWDRMKVAWWRWTS | failed
MNILLLIGGLILILLGANGLTDGAASVAKRFRIPSIVIGLTIVAFGTSAPELTVSVASALKGSADIAIGNVVGSNIFNTLMIVGCTALFAPIIITRNTLRKEIPLCILSSVVLLICANDIFLDNATENILNRVDGLLLLCFFAIFMGYTFAIAFPKSSAAPEPAAPEHTAPEEEIKLLSWWKSILYIIGGLAALIYGGQLFVNGATGIARSMGVSESIIGLTLVAGGTSLPELATSIVAALKKNPEMAIGNVIGSNLFNIFFVLGCSASITPLHLSGITNFDLFTLVGSSILLWLFGLFFAKRTITRIEGSIMILCYVAYTVVLIYNS | failed
LSDKLMERLKERAEGIFVSGPPGSGKSTFVAALAEFYRSQGKIVKTMESPRDLQVSKEITQYAPLEGDMEKTCDILLLVRPDYTIYDEVRKTRDFEIFADMRMAGVGMVGVVHASKPIDAIQRLIGRVELGVIPQVVDTVIFIKDGKIQKVYEIDFTVKVPYG | failed
MINYKKKIAALMLLATCLSGCSYDLKDLQHLKSKSSFDTVGIKILCEHKKYSEAMKQIDDYLKKHPDDKVALSEKGYVLVSQDKNEDGLLVLLKVNDKYPNYDVTLNNISWAYNNLKMYKLANKYADLALKQTPNSSEELSNKGTALFGLKNYKAAEKYYDKALEKKSTDKVAIWGKALSLYKEKSYSKSLTYFKKYVIVDSSDIQASYYMEKCYIALNDVDGAIKEFKSDIIADPKNKGNYFALGDMYRKKTDYSSALSCYDTLSEIDPEDPEIYFQKAICLVKSGDKDGACENLKLTLSYDSEYVSDIEEEPAFDALKDYDKFKEILNSK | failed
MEMVNAEAKQSVPLLTPYKMGRFNLSHRVVLAPLTRQKSYGSVPQPHAILYYSQRTSPGGFLIAEATGVSDTAQGYPDTPGIWTKEHVEAWKPIVDAVHAKGGIFFCQIWHVGRVSNRGFQPRRQAPISCTGKPIMPQMRANGIDEARFTPPRRLSIEEIPGIVNDFRLAARNAMEAGFDGVEIHGAHGYLIDQFMKDKVNDRTDEYGGSLQNRCKFALEVVDAVAKEIGPDRVGIRLSPFADYMESGDTNPEALGLYMVESLNKYGILYCHMIEPRMKTVGEIAACSHTLMPMREAFKGTFISAGGFTREDGNEAVAKGRTDLVAYGRWFLANPDLPKRFQLDAPLNKYNRSTFYTSDPVVGYTDYPSLESTA | failed
MNAGHLKEAAALYAEIVALNPGWEHGTALYSLACCYEDLGELTSAEECYRRALSYEPESPTFIGGLASFLHLHGSQS | failed
